Results as given in US11655308B2, “HM-3 fusion protein and application thereof” (TASLY BIOPHARMACEUTICALS CO., LTD., priority 2017, dated 2023).
Where “and” joins values, the source holds several entries; their conditions need not be identical. Equal values may be shown once.

Experiment: Pharmacokinetics after single subcutaneous injection (double-antibody sandwich ELISA)
Method: (1) 18 SD rats (half male and half female) were purchased and fed for one week.
(2) Rats were divided into 3 groups, half male and half female, and weight of rats were recorded respectively.
The blood was centrifuged at 12000 rpm/min to take 200 μL of supernatant, then the supernatant was diluted with PBS solution according to a ratio of 1:3, and finally placed in an EP tube and stored in a −80° C. refrigerator.
(4) Biological samples were measured by double-antibody sandwich ELISA.
(1) Coating, HM-3 monoclonal antibody was diluted with a coating buffer (CBS) in certain concentration, added to an ELISA plate and coated overnight.
(2) Plate washing, the coating buffer was discarded, and the plate was washed by PBST for 3 times, and then dried by patting.
(3) Sealing, a blocking buffer was added for sealing at 37.5° C., the plate washing process was repeated and the plate was dried by patting.
(4) Addition of samples to be measured, the samples to be measured were added to the ELISA plate with multiple wells, and then incubated at 37.5° C.; the plate washing process was repeated and the plate was dried by patting.
(5) Addition of a secondary antibody, the secondary antibody diluted proportionally was added for incubation at 37.5° C. The plate washing process was repeated and the plate was dried by patting.
(6) Addition of the enzyme-labeled secondary antibody for reaction, the HRP-labeled secondary antibody which was diluted by 5% skim milk powder solution according to certain proportion was added for incubation at 37.5° C. The plate washing process was repeated and the plate was dried by patting.
(7) Addition of a substrate, a TMB substrate in certain volume L was added for reaction in the dark.
(8) Termination of the reaction, a certain amount of stop buffer was added to terminate the reaction.
(9) Detection, read OD450 nm with a microplate reader.

Substance: mIgG4-Fc-(GGGGS)3-HM-3 [TSL-4]
- Plasma concentration (12.5 mg/kg sc, 16.00 h, Mean): 6.292 µg/mL
- Plasma concentration (12.5 mg/kg sc, 16.00 h, single rats No. 1-5): 2.587 µg/mL and 3.719 µg/mL and 6.053 µg/mL and 4.976 µg/mL and 14.124 µg/mL
- Plasma concentration (12.5 mg/kg sc, 20.00 h, Mean): 5.407 µg/mL
- Plasma concentration (12.5 mg/kg sc, 20.00 h, single rats No. 1-5): 1.900 µg/mL and 3.086 µg/mL and 5.605 µg/mL and 3.962 µg/mL and 12.480 µg/mL
- Plasma concentration (12.5 mg/kg sc, 24.00 h, Mean): 4.248 µg/mL
- Plasma concentration (12.5 mg/kg sc, 24.00 h, single rats No. 1-5): 1.822 µg/mL and 2.513 µg/mL and 2.747 µg/mL and 3.966 µg/mL and 10.192 µg/mL
- Plasma concentration (12.5 mg/kg sc, 28.00 h, Mean): 1.907 µg/mL
- Plasma concentration (12.5 mg/kg sc, 28.00 h, single rats No. 1-5): 0.336 µg/mL and 1.653 µg/mL and 0.766 µg/mL and 2.703 µg/mL and 4.077 µg/mL
- Plasma concentration (12.5 mg/kg sc, 41.00 h, Mean): 0.746 µg/mL
- Plasma concentration (12.5 mg/kg sc, 41.00 h, single rats No. 1-5): 0.241 µg/mL and 0.700 µg/mL and 0.417 µg/mL and 1.185 µg/mL and 1.189 µg/mL
- Plasma concentration (12.5 mg/kg sc, 53.00 h, Mean): 0.402 µg/mL
- Plasma concentration (12.5 mg/kg sc, 53.00 h, single rats No. 1-5): 0.131 µg/mL and 0.542 µg/mL and 0.247 µg/mL and 0.734 µg/mL and 0.357 µg/mL
- Plasma concentration (12.5 mg/kg sc, 65.00 h, Mean): 0.330 µg/mL
- Plasma concentration (12.5 mg/kg sc, 65.00 h, single rats No. 1-5): 0.127 µg/mL and 0.396 µg/mL and 0.181 µg/mL and 0.648 µg/mL and 0.299 µg/mL
- Plasma concentration (12.5 mg/kg sc, 77.00 h, Mean): 0.261 µg/mL
- Plasma concentration (12.5 mg/kg sc, 77.00 h, single rats No. 1-5): 0.064 µg/mL and 0.285 µg/mL and 0.160 µg/mL and 0.505 µg/mL and 0.290 µg/mL
- AUC 0-77 (12.5 mg/kg single sc): 116.1901 µg·h/mL
- AUC 0-∞ (12.5 mg/kg single sc): 128.4302 µg·h/mL
- MRT 0-77 (12.5 mg/kg single sc): 18.248 h
- MRT 0-∞ (12.5 mg/kg single sc): 20.882 h
- Tmax (12.5 mg/kg single sc): 7 ± 0.707 h
- ka (12.5 mg/kg single sc): 0.247
- t½ka (absorption half-life) (12.5 mg/kg single sc): 3.249 h
- t½ke (elimination half-life) (12.5 mg/kg single sc): 32.321 ± 4.935 h
- α, ke (12.5 mg/kg single sc): 0.149
- Plasma concentration (37.5 mg/kg sc, 0.50 h, Mean): 1.402 µg/mL
- Plasma concentration (37.5 mg/kg sc, 0.50 h, single rats No. 1-5): 1.180 µg/mL and 1.202 µg/mL and 1.816 µg/mL and 1.534 µg/mL and 1.277 µg/mL
- Plasma concentration (37.5 mg/kg sc, 1.00 h, Mean): 2.169 µg/mL
- Plasma concentration (37.5 mg/kg sc, 1.00 h, single rats No. 1-5): 1.974 µg/mL and 1.514 µg/mL and 2.370 µg/mL and 1.151 µg/mL and 3.838 µg/mL
- Plasma concentration (37.5 mg/kg sc, 3.00 h, Mean): 13.349 µg/mL
- Plasma concentration (37.5 mg/kg sc, 3.00 h, single rats No. 1-5): 23.044 µg/mL and 13.341 µg/mL and 9.819 µg/mL and 5.861 µg/mL and 14.678 µg/mL
- Plasma concentration (37.5 mg/kg sc, 5.00 h, Mean): 19.696 µg/mL
- Plasma concentration (37.5 mg/kg sc, 5.00 h, single rats No. 1-5): 36.313 µg/mL and 18.726 µg/mL and 10.891 µg/mL and 12.949 µg/mL and 19.600 µg/mL
- Plasma concentration (37.5 mg/kg sc, 6.00 h, Mean): 27.920 µg/mL
- Plasma concentration (37.5 mg/kg sc, 6.00 h, single rats No. 1-5): 44.277 µg/mL and 20.173 µg/mL and 20.450 µg/mL and 16.158 µg/mL and 38.541 µg/mL
- Plasma concentration (37.5 mg/kg sc, 7.00 h, Mean): 35.272 µg/mL
- Plasma concentration (37.5 mg/kg sc, 7.00 h, single rats No. 1-5): 64.960 µg/mL and 21.479 µg/mL and 38.009 µg/mL and 22.359 µg/mL and 29.552 µg/mL
- Plasma concentration (37.5 mg/kg sc, 8.00 h, Mean): 30.478 µg/mL
- Plasma concentration (37.5 mg/kg sc, 8.00 h, single rats No. 1-5): 62.784 µg/mL and 25.446 µg/mL and 31.080 µg/mL and 12.944 µg/mL and 20.137 µg/mL
- Plasma concentration (37.5 mg/kg sc, 10.00 h, Mean): 24.736 µg/mL
- Plasma concentration (37.5 mg/kg sc, 10.00 h, single rats No. 1-5): 44.656 µg/mL and 21.055 µg/mL and 21.153 µg/mL and 10.006 µg/mL and 26.810 µg/mL
- Plasma concentration (37.5 mg/kg sc, 12.00 h, Mean): 19.172 µg/mL
- Plasma concentration (37.5 mg/kg sc, 12.00 h, single rats No. 1-5): 36.576 µg/mL and 17.149 µg/mL and 17.361 µg/mL and 8.919 µg/mL and 15.856 µg/mL
- Plasma concentration (37.5 mg/kg sc, 16.00 h, Mean): 11.084 µg/mL
- Plasma concentration (37.5 mg/kg sc, 16.00 h, single rats No. 1-5): 13.903 µg/mL and 7.767 µg/mL and 12.942 µg/mL and 6.885 µg/mL and 13.925 µg/mL
- Plasma concentration (37.5 mg/kg sc, 20.00 h, Mean): 7.721 µg/mL
- Plasma concentration (37.5 mg/kg sc, 20.00 h, single rats No. 1-5): 9.514 µg/mL and 3.313 µg/mL and 9.915 µg/mL and 4.605 µg/mL and 11.259 µg/mL
- Plasma concentration (37.5 mg/kg sc, 24.00 h, Mean): 4.523 µg/mL
- Plasma concentration (37.5 mg/kg sc, 24.00 h, single rats No. 1-5): 4.801 µg/mL and 3.205 µg/mL and 5.617 µg/mL and 3.076 µg/mL and 5.918 µg/mL
- Plasma concentration (37.5 mg/kg sc, 28.00 h, Mean): 2.285 µg/mL
- Plasma concentration (37.5 mg/kg sc, 28.00 h, single rats No. 1-5): 1.952 µg/mL and 2.730 µg/mL and 3.953 µg/mL and 1.833 µg/mL and 0.959 µg/mL
- Plasma concentration (37.5 mg/kg sc, 41.00 h, Mean): 0.920 µg/mL
- Plasma concentration (37.5 mg/kg sc, 41.00 h, single rats No. 1-5): 0.780 µg/mL and 0.912 µg/mL and 1.824 µg/mL and 0.779 µg/mL and 0.303 µg/mL
- Plasma concentration (37.5 mg/kg sc, 53.00 h, Mean): 0.407 µg/mL
- Plasma concentration (37.5 mg/kg sc, 53.00 h, single rats No. 1-5): 0.431 µg/mL and 0.466 µg/mL and 0.510 µg/mL and 0.391 µg/mL and 0.237 µg/mL
- Plasma concentration (37.5 mg/kg sc, 65.00 h, Mean): 0.312 µg/mL
- Plasma concentration (37.5 mg/kg sc, 65.00 h, single rats No. 1-5): 0.357 µg/mL and 0.301 µg/mL and 0.370 µg/mL and 0.291 µg/mL and 0.243 µg/mL
- Plasma concentration (37.5 mg/kg sc, 77.00 h, Mean): 0.215 µg/mL
- Plasma concentration (37.5 mg/kg sc, 77.00 h, single rats No. 1-5): 0.269 µg/mL and 0.253 µg/mL and 0.169 µg/mL and 0.244 µg/mL and 0.138 µg/mL
- AUC 0-77 (37.5 mg/kg single sc): 166.338 µg·h/mL
- AUC 0-∞ (37.5 mg/kg single sc): 176.11 ± 39.59645 µg·h/mL
- MRT 0-77 (37.5 mg/kg single sc): 13.988 h
- MRT 0-∞ (37.5 mg/kg single sc): 15.755 h
- Tmax (37.5 mg/kg single sc): 7 ± 0.707 h
- ka (37.5 mg/kg single sc): 0.116
- t½ka (absorption half-life) (37.5 mg/kg single sc): 3.079 h
- t½ke (elimination half-life) (37.5 mg/kg single sc): 34.356 ± 1.578 h and 34.355 h
- α, ke (37.5 mg/kg single sc): 0.197
- pharmacokinetic characteristics (4.17, 12.5, 37.5 mg/kg sc): consistent with linear pharmacokinetic characteristics
